Biological target: the molecule itself
Assay: SEC + native gel or EMSA; control constructs in analytical Superose 6 gel filtration and clear-native and blue-native PAGE (Supplementary Fig. 2); self-association

B1: human cystathionine beta-synthase catalytic domain alone (CBS^CD, residues 1–413) (domain or fragment, UniProt P35520 1-413, looked up)
chain: MPSETPQAEVGPTGCPHRSGPHSAKGSLEKGSPEDKEAKEPLWIRPDAPSRCTWQLGRPASESPHHHTAPAKSPKILPDILKKIGDTPMVRINKIGKKFGLKCELLAKCEFFNAGGSVKDRISLRMIEDAERDGTLKPGDTIIEPTSGNTGIGLALAAAVRGYRCIIVMPEKMSSEKVDVLRALGAEIVRTPTNARFDSPESHVGVAWRLKNEIPNSHILDQYRNASNPLAHYDTTADEILQQCDGKLDMLVASVGTGGTITGIARKLKEKCPGCRIIGVDPEGSILAEPEELNQTEQTTYEVEGIGYDFIPTVLDRTVVDKWFKSNDEEAFTFARMLIAQEGLLCGGSAGSTVAVAVKAAQELQEGQRCVVILPDSVRNYMTKFLSDRWMLQKGFLKEEDLTEKKPWWWHLR
notes: source: E. coli Rosetta (DE3), purified
stoichiometry N: 2
